Experimental data as given in patent US11202837B2, “Biological materials and uses thereof” (Antikor Biopharma Limited, priority 2014, dated 2021).
Read-outs that look alike come from different tables or passages of the source. Where a SMILES comes first, the peptide text is derived from it. [ ]: non-standard residue; d: D form. Dolaproine = CO[C@@H]([C@@H]1CCCN1)[C@@H](C)C(=O)O; Dil = CC[C@H](C)[C@H](NC)[C@@H](CC(=O)O)OC; NMeV = CN[C@H](C(=O)O)C(C)C

Legend:
[1] = tested on: BT474 human breast carcinoma xenografts; assay: Tumour growth inhibition or eradication in BT474 xenograft model; assay type: in vivo; conditions: free payload treated group
Procedure: Mice. […] The animals were fed ad libitum water (reverse osmosis, 1 ppm Cl), and NIH 31 Modified and Irradiated Lab Diet® consisting of 18.0% crude protein, 5.0% crude fat, and 5.0% crude fiber. The mice were housed on irradiated Enrich-o'cobs™ Laboratory Animal Bedding in static microisolators on a 12-hour light cycle at 20-22° C. (68-72° F.) and 40-60% humidity. Charles River Discovery Services North Carolina (CR Discovery Services, who carried out this contracted R&D) specifically complies with the recommendations of the Guide for Care and Use of Laboratory Animals with respect to restraint, husbandry, surgical procedures, feed and fluid regulation, and veterinary care.
Tumor weight may be estimated with the assumption that 1 mg is equivalent to 1 mm^3 of tumor volume.

[2] = tested on: NCI-N87 cells; assay: Cell killing assay (MTS), NCI-N87 cells; assay type: cell-based, human; conditions: 96 hours
Procedure: (§1) The cells were recovered by centrifugation (2 min, 2000 rpm), the supernatant was discarded, and the cells were resuspended in complete McCoy's 5A (5 ml). The cells were then counted using a haemocytometer and diluted accordingly. They were plated at 5000 cells/well (200 μl) using attachment factor and incubated overnight at 37° C., 5% CO2 in a humidified atmosphere. U87 is a non-HER2 expressing glioblastoma cell line [Zitron I M et al (2013) BMC Cancer 13:83] and was grown in a similar way, plated at 1000 cells/well (using DMEM media). BT474 is a HER2 expressing breast cancer cell line [Brockhoff G et al (2007) Cell Prolif 40:488-507] and was grown in a similar way, plated at 7500 cells/well (using RPMI media). NCI-N87 is a HER2 expressing gastric cancer cell line [Yamashita-Kashima Y et al (2013) Oncol. Rep 30:1087-93] and was grown in a similar way, plated at 7500 cells/well (using RPMI media).
(§2) The cells were exposed to the various ADCs diluted in complete media for 96 hours at 37° C., 5% CO2 in a humidified atmosphere. Cell viability was measured using the Promega Aqueous Cell-titre-96™ aqueous one solution cell proliferation kit (MTS reagent) according to manufacturer's instructions. Briefly, the media was removed and 100 μl of complete phenol red free media, pre-combined with MTS reagent, was added to the cells (20 μl of reagent per 100 μl of media). The plates were read on an ELISA plate reader at 490 nm after a 2 hr incubation in the dark (5% CO2, 37° C.).
The data (absorption units) were converted to % cell survival by using the untreated controls as the 100% cell survival and the Triton X-100 controls as the 100% cell death. The average absorption value for the latter was subtracted from all the rest of the data in order to get a suitable baseline. The averages were converted to survival and standard error values were obtained for each n value (as a % cell survival). […] Experiments were repeated at least 3 times for each compound tested and a set or an average of the data was plotted and fitted to obtain a dose-response curve.

[3] = tested on: SKBr3 cells; assay: Cell killing assay (MTS), SKBr3 cells; assay type: cell-based, human; conditions: SKBr3 Cells (HER2+++), 96 hours; for IC50: read-out: IC50
[4] = tested on: BT474 cells; assay: Cell killing assay (MTS), BT474 cells; assay type: cell-based, human; conditions: BT474 Cells (HER2++), 96 hours, Table 49; for IC50: read-out: IC50
How it was run: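 BT474 and NCI-N87 cells plated at 7500 cells/well in RPMI and exposed to ADCs for 96 h at 37 °C, 5% CO2. Viability read by MTS absorbance at 490 nm after 2 h, scaled between untreated (100% survival) and Triton X-100 (100% death) controls. Dose-response curves fitted from at least 3 repeats.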

[5] = tested on: U87 cells; assay: Cell killing assay (MTS), U87 cells; assay type: cell-based; conditions: U87 Cells (HER2−), 96 hours, Table 51
Procedure: SKBr3, human breast cancer cell line, high HER2 expression levels, up to 1,000,000 receptors per cell [Lazar G A, et al Proc Natl Acad Sci USA. […] When confluency was 70-80%, cells were washed with PBS (2×10 ml) and incubated with trypsin for 5-7 min. Complete media was added and the cells were resuspended by pipetting. The cells were recovered by centrifugation (2 min, 2000 rpm), the supernatant was discarded, and the cells were resuspended in complete DMEM (5 ml). The cells were then counted using a haemocytometer and diluted accordingly. They were plated at 4500 cells/well (200 μl) using attachment factor and incubated overnight at 37° C., 5% CO2 in a humidified atmosphere. U87 is a non-HER2 expressing glioblastoma cell line and was grown in a similar way, plated at 1000 cells/well.
The cells were exposed to the various ADCs diluted in complete media for 96 hours at 37° C., 5% CO2 in a humidified atmosphere. Cell viability was measured using the Promega Aqueous Cell-titre-96™ aqueous one solution cell proliferation kit according to manufacturer's instructions. Briefly, the media was removed and 100 μl of complete phenol red free media, pre-combined with MTS reagent, was added to the cells (20 μl of reagent per 100 μl of media). The plates were read on an ELISA plate reader at 490 nm after a 2 hr incubation in the dark (5% CO2, 37° C.).
The data (absorption units) were converted to % cell survival by using the untreated controls as the 100% cell survival and the Triton X-100 controls as the 100% cell death. The average absorption value for the latter was subtracted from all the rest of the data in order to get a suitable baseline. The averages were converted to survival and standard error values were obtained for each n value (as a % cell survival). […] Experiments were repeated at least 3 times for each compound tested and a set or an average of the data was plotted and fitted to obtain a dose response curve.
as §1, §2
The data (absorption units) were converted to % cell survival by using the untreated controls as the 100% cell survival and the Triton X-100 controls as the 100% cell death. The average absorption value for the latter was subtracted from all the rest of the data in order to get a suitable baseline. The averages were converted to survival and standard error values were obtained for each n value (as a % cell survival).

[6] = Aggregation by HPLC size-exclusion chromatography; assay type: physicochemical; conditions: purified or analysed conjugate vs unconjugated antibody
Procedure: Aggregation can be tested by analytical size-exclusion HPLC measuring the percentage of high molecular weight material compared to the conjugate eluting at a retention time characteristic of a monomeric conjugate.
Typically, 20 μg of protein was injected for analytical runs and 300 μg for semi-preparative runs.

[7] = Concentration reached and storage stability of purified conjugates in buffer; assay type: physicochemical
[8] = molecular target: HER2 (Homo sapiens, UniProt P04626); assay: Biacore SPR binding to immobilised HER2; conditions: compared to unmodified scFv
Procedure: The binding affinity against immobilised HER2 target antigen was determined by Biacore SPR compared to the unmodified scFv on a Biacore T200. A standard amine-coupling method was used to prepare all Biacore surfaces (CM5 or CM3), as follows. Flow cells were activated individually by injecting a freshly mixed solution of 0.2M EDC in 0.05 M NHS at 30 μl/min. […] Excess NHS ester was deactivated using a 1 M ethanolamine solution. To measure the kinetics of the antibody and conjugate on the HER2 chip, a […] serial dilution (typically at 5, 2.5, 1.25, 0.6 μg/ml or lower for free antibody and 20, 10, 5, 2.5 μg/ml for the conjugates), was injected for 160 s at 30 μl/min, allowing a 900-s dissociation phase. The dissociation time was extended to 3600 s for the highest concentration. Surfaces were regenerated with 45 s injection of MgCl2 8M.
To evaluate binding ability, manual runs were performed at 30 μl/min with a 60 s injection of the desired compound followed by 60 s waiting time and a 45 s of regeneration at 10 μl/min using MgCl2 8M. All data was analysed using the software, BIAEvaluation.

[9] = NCI-N874 Cells (HER2++), Table 49
[10] = NCI-N87 Cells (HER2++), Table 51

Molecule | IC50 μg/ml [2, 9] | IC50 [2, 9] | IC50 μg/ml ([3]; Table 49) | IC50 ([3]; Table 49) | IC50 μg/ml [4] | IC50 [4] | other results
CC[C@H](C)[C@@H]([C@@H](CC(=O)N1CCC[C@H]1[C@H](OC)[C@@H](C)C(=O)N[C@@H](Cc1ccccc1)C(=O)O)OC)N(C)C(=O)[C@@H](NC(=O)[C@@H](NC)C(C)C)C(C)C [Free MMAF, monomethyl auristatin F, reference compound] (H-[NMeV]V[Dil][Dolaproine]F-OH) | – | – | – | – | – | – | tumour growth (in words) [1]: grew rapidly
scFv (TCT1067)-Auristatin F-C5, DAR 2.7 (conjugate) scFv: SGSGGSGQVQLVQSGAEVKKPGESLKISCKGSGYSFTSYWIAWVRQMPGKGLEYMGLIYPGDSDTKYSPSFQGQVTISVDKSVSTAYLQWSSLKPSDSAVYFCARHDVGYCTDRTCAAWPEWLGVWGQGTLVTVSSGGGGSGGGGSGGGGSQSVLTQPPSVSAAPGQKVTISCSGSSSNIGNNYVSWYQQLPGTAPKLLIYGHTNRPAGVPDRFSGSKSGTSASLAISGFRSEDEADYYCASWDYTLSGWVFGGGTKLTVLMASMTGGQQMG | 0.00087 µg/mL | 0.0311 nM | 0.00089 µg/mL | 0.0317 nM | 0.00115 µg/mL | 0.0392 nM | –
scFv (TCT1067)-Auristatin F-C5, DAR 11.8 (conjugate) scFv: SGSGGSGQVQLVQSGAEVKKPGESLKISCKGSGYSFTSYWIAWVRQMPGKGLEYMGLIYPGDSDTKYSPSFQGQVTISVDKSVSTAYLQWSSLKPSDSAVYFCARHDVGYCTDRTCAAWPEWLGVWGQGTLVTVSSGGGGSGGGGSGGGGSQSVLTQPPSVSAAPGQKVTISCSGSSSNIGNNYVSWYQQLPGTAPKLLIYGHTNRPAGVPDRFSGSKSGTSASLAISGFRSEDEADYYCASWDYTLSGWVFGGGTKLTVLMASMTGGQQMG | 0.0087 µg/mL | 0.31 nM | 0.00844 µg/mL | 0.299 nM | 0.01082 µg/mL | 0.386 nM | –
scFv (TCT1067)-MMAE-PAB-Cit-Val-dPEG9, DAR 9 (conjugate, non-natural residues) scFv: SGSGGSGQVQLVQSGAEVKKPGESLKISCKGSGYSFTSYWIAWVRQMPGKGLEYMGLIYPGDSDTKYSPSFQGQVTISVDKSVSTAYLQWSSLKPSDSAVYFCARHDVGYCTDRTCAAWPEWLGVWGQGTLVTVSSGGGGSGGGGSGGGGSQSVLTQPPSVSAAPGQKVTISCSGSSSNIGNNYVSWYQQLPGTAPKLLIYGHTNRPAGVPDRFSGSKSGTSASLAISGFRSEDEADYYCASWDYTLSGWVFGGGTKLTVLMASMTGGQQMG | – | – | – | – | – | – | IC50 μg/ml [2, 10]: 0.195 µg/mL; IC50 [2, 10]: 6.95 nM; IC50 μg/ml ([3]; Table 51): 0.04476 µg/mL; IC50 ([3]; Table 51): 1.59 nM; IC50 μg/ml [5]: 0.1 µg/mL; IC50 ([5]; read-out: IC50): 3.57 nM
scFv (TCT1067)-Auristatin F-C5, DAR 6.2 (conjugate) scFv: SGSGGSGQVQLVQSGAEVKKPGESLKISCKGSGYSFTSYWIAWVRQMPGKGLEYMGLIYPGDSDTKYSPSFQGQVTISVDKSVSTAYLQWSSLKPSDSAVYFCARHDVGYCTDRTCAAWPEWLGVWGQGTLVTVSSGGGGSGGGGSGGGGSQSVLTQPPSVSAAPGQKVTISCSGSSSNIGNNYVSWYQQLPGTAPKLLIYGHTNRPAGVPDRFSGSKSGTSASLAISGFRSEDEADYYCASWDYTLSGWVFGGGTKLTVLMASMTGGQQMG | 0.00036 µg/mL | 0.0129 nM | 0.00101 µg/mL | 0.0361 nM | 0.00112 µg/mL | 0.0399 nM | –
scFv (TCT)-Auristatin F-C5: scFv (TCT) conjugated with Auristatin-F-C5-NHS (compound 88), 30 equivalents, average DAR 8.5 (conjugate) scFv: SGSGGSGQVQLVQSGAEVKKPGESLKISCKGSGYSFTSYWIAWVRQMPGKGLEYMGLIYPGDSDTKYSPSFQGQVTISVDKSVSTAYLQWSSLKPSDSAVYFCARHDVGYCSSSNCAAWPEYFQHWGQGTLVTVSSGGGGSGGGGSGGGGSQSVLTQPPSVSAAPGQKVTISCSGSSSNIGNNYVSWYQQLPGTAPKLLIYGHTNRPAGVPDRFSGSKSGTSASLAISGFRSEDEADYYCAAWDDSLSGWVFGGGTKLTVLMASMTGGQQMG | – | – | – | – | – | – | aggregation by HPLC-SEC (in words) [6]: no aggregation; time stable in the buffer ([7]; after purification and concentration): several weeks; concentration to which purified conjugates were concentrated ([7]; in buffer after SEC purification): ~600 µg/mL; binding function against immobilised HER2 (in words) [8]: verified
